According to PMC12676778, “Long-tailed class I myosins rely on tail-mediated phosphoinositide recognition for specific membrane recruitment” (Cell Communication and Signaling : CCS, 2025):
One block for each binder: values may come before it.

How the values were obtained:
Conditions in all cases: both partners purified
[1] = biological target: microtubules (UniProt P02550 1-451, alpha/beta-tubulin heterodimer polymerised into paclitaxel-stabilised microtubules, GTP in the buffer. Source and isotypes not given); porcine brain tubulin (a natural isotype mixture with native mod); assay: co-sedimentation; YFP fluorescence of pellet and supernatant; 100 mM PIPES pH 6.8, 2 mM MgCl2, 1 mM EGTA, 20 µM paclitaxel, 1 mM GTP; 20,000 g, 30 min, 30 °C; hyperbolic fit
[2] = biological target: T1, F-actin (UniProt P68135 1-377); assay: co-sedimentation; YFP fluorescence of pellet and supernatant; increasing F-actin concentrations; 5 mM Tris pH 7.4, 100 mM KCl, 0.04% NaN3, 2 mM MgCl2; 20,000 g, 30 min, 4 °C
[3] = biological target: T1, F-actin; assay: as above; remark: listed apart in the source

microtubules, sequence (P02550 whole entry, chain 1 of 2): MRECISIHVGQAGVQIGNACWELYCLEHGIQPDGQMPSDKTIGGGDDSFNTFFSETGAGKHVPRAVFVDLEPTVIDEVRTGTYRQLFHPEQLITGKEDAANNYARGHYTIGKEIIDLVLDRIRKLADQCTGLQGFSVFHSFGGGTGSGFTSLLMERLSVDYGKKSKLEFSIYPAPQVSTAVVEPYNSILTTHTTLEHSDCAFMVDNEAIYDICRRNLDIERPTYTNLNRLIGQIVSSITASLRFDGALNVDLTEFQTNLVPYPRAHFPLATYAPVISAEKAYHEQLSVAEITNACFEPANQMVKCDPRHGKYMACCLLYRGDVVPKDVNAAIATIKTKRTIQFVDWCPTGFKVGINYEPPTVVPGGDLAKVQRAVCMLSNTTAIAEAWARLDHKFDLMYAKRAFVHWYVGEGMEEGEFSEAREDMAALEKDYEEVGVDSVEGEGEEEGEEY
microtubules, sequence (P02554 whole entry, chain 2 of 2, further chain): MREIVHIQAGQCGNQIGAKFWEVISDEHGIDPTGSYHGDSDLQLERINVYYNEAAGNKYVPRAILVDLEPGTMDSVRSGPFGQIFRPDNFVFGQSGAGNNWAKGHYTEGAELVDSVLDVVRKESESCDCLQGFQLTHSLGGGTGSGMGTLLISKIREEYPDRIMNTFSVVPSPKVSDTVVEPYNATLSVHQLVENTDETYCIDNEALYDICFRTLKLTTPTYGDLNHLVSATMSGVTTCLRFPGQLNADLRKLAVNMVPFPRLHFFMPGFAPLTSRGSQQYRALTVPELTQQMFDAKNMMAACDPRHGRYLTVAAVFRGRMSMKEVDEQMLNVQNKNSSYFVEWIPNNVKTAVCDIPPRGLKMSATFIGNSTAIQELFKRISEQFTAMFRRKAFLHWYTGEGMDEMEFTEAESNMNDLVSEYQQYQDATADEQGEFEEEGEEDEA

Kd [1]: 900 ± 100 nM | Kd [2]: 6800 ± 200 nM
B1: myosin-1B tail (amino acids 717–1111) (domain or fragment, Dictyostelium discoideum, UniProt P34092 717-1111, looked up)
chain: QRAQIAHMFKDKKERQRNSIDRKFTSDYIDFENQFGLQEAMQNAHKKERVVFADTVIKIDRRAKQKNYEMVLTDQALYFVEKSIKKKVLVHTLIRRVGLREIKGVSISTLSDNVIVFHLPEHDQVIENDKKTEIIIVLVEYFKAIGGGSLNVQFSDRINYTLKKGEQKEISFQKSEQCPTLVVKKGGKGLIGTIASGLPSSTDSTPKNYNPNSMSQASSRPAPQQSAGRGRGMPQGAGQPQPQQPQQQQRPMPQPQQGGGARPMPQPQQGGGARPMGAPQQGGAPQQGAGRQLPQPTQQGGAPGGRGAPMGRGAPGGGPAGAGGRPLPTVAKPAPQPSRPTAKALYDYDASSTDELSFKEGDIIFIVQKDNGGWTQGELKSGQKGWAPTNYLQYN
notes: Dictyostelium discoideum myosin-1B, tail, amino acids 717-1111 (NCBI XM_631290.1); Cloned both into pGEX-6P2 (GST only) and pGEX-6P2-eYFP-mcs (GST and YFP); the actin and microtubule assays detect YFP; S3; also called YFP-myosin-1 tail; source: E. coli Rosetta pLys-S, purified (glutathione-Sepharose, size exclusion chromatography); not shown: YFP, C-terminal, kept

Kd [1]: 3300 ± 200 nM
B2: myosin-1D tail-TH1 construct (aa 721–913) (domain or fragment, Dictyostelium discoideum, UniProt P34109 721-913, looked up)
chain: MKSNKERRRLSIERPYQGDYINYRENFELKDIVKKNGNEKIMFTHAVNKYDRRSRCQRRVLLLSDTAIYFIATEKNKDKEDRKKRPWIYVQKRRLLLAGITSVELSKLSDGFVVLKTMNEHDQIFECRRKTEFLGTLIKAYKTGTLRINYNNSIGVAIKASKQGGKGKERIILFEKGIKPGESVFKGTKVSTP
notes: Dictyostelium discoideum myosin-1D, TH1 domain only, aa 721-913; The methods describe cloning into pGEX-6P2 (GST only); the results call the construct YFP-tagged and the co-sedimentation detects YFP; S3; also called Myosin-1D-TH1; isolated TH1 domain; source: E. coli Rosetta pLys-S, purified (glutathione-Sepharose, size exclusion chromatography)

Kd [3]: 900 ± 400 nM | Kd [2]: 800 ± 80 nM
B3: myosin-1C tail (domain or fragment)
chain: RYWHDMASRIKNAYRNYKAFQFECSNRIKNAFRNYKLYRQRCAQTIQGYFRAWKQASPFFDLRMQNEQLFQGRKERNRFSMISVRKYFGDYLDVRSQSYFLDAMAEGRNEDVIFSSKSQVMVHPILSANKLSPRFLIVTKQAIYLIKLKQKKNLATYLLDRRVPLAEVTSFSLSSLADNLLVIHTSTQFDVAVTTEFKTELVALINKQKGTTLAVNFGQSIQYFKKKGSNNTVTFLKDEMHKEIFLKKNQFHIASGLPASTTVAKVRKNPSQVSTPSKPIAKPVAKPMVAKPSGGSVIMKKPAPAAPPSGPPVMKKPAPTAPGGAPMMKKPAPAPGGAPMMKKPAPVPGGPAPGGSAIMKPAGGVSKPLPSPTGAPMMKKPAPTAPGGPAPAGAPTPMMKKPAGQPMMKPIAKPQPTPMKKPAAPPPQQYIALYEYDAMQPDELTFKENDVINLIKKVDADWWQGELVRTKQIGMLPSNYVQQI
notes: Dictyostelium discoideum myosin-1C, tail; S3; also called YFP-myosin-1 tail; source: E. coli Rosetta pLys-S, purified (glutathione-Sepharose, size exclusion chromatography)
